The values below come from PMC2938383 (Molecular Biology of the Cell, 2010).

This data set deals with the molecule itself. The data set can be described thus: SEC.

For orientation: stoichiometry N means the number of molecules, sites or subunits per partner or assembly.

B1: purified wild-type lipin1β (His6-tagged, baculovirus expressed) (enzyme, mouse, UniProt Q91ZP3 1-924, looked up)
chain: MNYVGQLAGQVFVTVKELYKGLNPATLSGCIDIIVIRQPNGSLQCSPFHVRFGKMGVLRSREKVVDIEINGESVDLHMKLGDNGEAFFVQETDNDQEIIPMYLATSPILSEGAARMESQLKRNSVDRIRCLDPTTAAQGLPPSDTPSTGSLGKKRRKRRRKAQLDNLKRDDNVNSSEDEDMFPIEMSSDEDTAPMDGSRTLPNDVPPFQDDIPKENFPSISTHPQSASYPSSDREWSPSPSSLVDCQRTPPHLAEGVLSSSCPLQSCHFHASESPSGSRPSTPKSDSELVSKSADRLTPKNNLEMLWLWGELPQAAKSSSPHKMKESSPLGSRKTPDKMNFQAIHSESSDTFSDQSPTMARGLLIHQSKAQTEMQFVNEEDLESLGAAAPPSPVAEELKAPYPNTAQSSSKTDSPSRKKDKRSRHLGADGVYLDDLTDMDPEVAALYFPKNGDPGGLPKQASDNGARSANQSPQSVGGSGIDSGVESTSDSLRDLPSIAISLCGGLSDHREITKDAFLEQAVSYQQFADNPAIIDDPNLVVKVGNKYYNWTTAAPLLLAMQAFQKPLPKATVESIMRDKMPKKGGRWWFSWRGRNATIKEESKPEQCLTGKGHNTGEQPAQLGLATRIKHESSSSDEEHAAAKPSGSSHLSLLSNVSYKKTLRLTSEQLKSLKLKNGPNDVVFSVTTQYQGTCRCEGTIYLWNWDDKVIISDIDGTITRSDTLGHILPTLGKDWTHQGIAKLYHKVSQNGYKFLYCSARAIGMADMTRGYLHWVNERGTVLPQGPLLLSPSSLFSALHREVIEKKPEKFKVQCLTDIKNLFFPNTEPFYAAFGNRPADVYSYKQVGVSLNRIFTVNPKGELVQEHAKTNISSYVRLCEVVDHVFPLLKRSHSCDFPCSDTFSNFTFWREPLPPFENQDMHSASA
As to B1, the “stoichiometry N” value was approximately 4.
